Test results as given in PMC2196246 (The Journal of Experimental Medicine, 1997).
No end group written: not given here.

Test system: purified I-A^g7
Experiment: not given
Conditions: cited from earlier work

| Substance | direct binding to purified I-A^g7 |
| --- | --- |
| HEL 11–25: HEL peptide tested by Carrasco-Marin et al. (AMKRHGLDNYRGYSL; UniProt P00698 29-43, looked up, fragment) | unable to demonstrate direct binding |

Biological target: I-A^g7 (mouse (NOD; endogenous in 4G4.7 hybridoma))
Experiment: ELISA
Conditions: not given

| IC50 | Substance |
| --- | --- |
| > 50000 nM | HEL 9–17 (peptide) |
| 300 nM | HEL 9–22 (peptide) |
| 200 nM | HEL 9–24 (peptide) |
| 300 nM | HEL 10–22 A10L (peptide) |
| < 1000 nM | HEL 10–22 D18E (peptide) |
| 300 nM | HEL 10–22 D18P (peptide) |
| < 1000 nM | HEL 10–22 D18R (peptide) |
| 100 nM | HEL 10–22 D18Y (peptide) |
| 350 nM | HEL 10–22 G22A (peptide) |
| 650 nM | HEL 10–22 G22P (peptide) |
| 300 nM | HEL 10–22 H15A (peptide) |
| 1750 nM | HEL 10–22 H15D (peptide) |
| 1000 to 10000 nM | HEL 10–22 L17F (peptide) |
| 1000 to 10000 nM | HEL 10–22 L17H (peptide) |
| < 1000 nM | HEL 10–22 L17M (peptide) |
| < 1000 nM | HEL 10–22 L17V (peptide) |
| 2000 nM | HEL 10–22 N19D (peptide) |
| 1000 to 10000 nM | HEL 10–22 N19E (peptide) |
| 1000 to 10000 nM | HEL 10–22 N19R (peptide) |
| > 50000 nM | HEL 10–22 N19Y (peptide) |
| 300 nM | HEL 10–22 R14A (peptide) |

| IC50 | Substance |
| --- | --- |
| 1000 to 10000 nM | HEL 10–22 R14G (peptide) |
| 1000 to 10000 nM | HEL 10–22 R14S (peptide) |
| 1000 to 10000 nM | HEL 10–22 R14W (peptide) |
| 300 nM | HEL 10–22 R21Y (peptide) |
| < 1000 nM | HEL 10–22 Y20F (peptide) |
| 1000 to 10000 nM | HEL 10–22 Y20N (peptide) |
| 2000 nM | HEL 10–22 Y20Q (peptide) |
| 295 nM | HEL 10–23 (peptide) |
| 300 nM | HEL 10–27 (peptide) |
| 300 nM | HEL 11–27 (peptide) |
| 250 nM | HEL 12–23 (peptide) |
| 300 nM | HEL 12–27 (peptide) |
| 250 nM | HEL 13–22 (peptide) |
| 200 nM | HEL 13–23 (peptide) |
| 2000 nM | HEL 14–27 (peptide) |
| > 50000 nM | HEL 16–27 (peptide) |
| > 50000 nM | HEL 17–27 (peptide) |
| > 50000 nM | HEL 19–27 (peptide) |
| 30000 nM | human proinsulin 5–19 (peptide) |
| 1000 nM | human proinsulin 21–35 (peptide) |
| 1000 nM | human proinsulin 49–63 (peptide) |

Continued, substance first:

| Substance | IC50 |
| --- | --- |
| HEL 9–21 (peptide) | 300 nM |
| HEL 9–25 (peptide) | 300 nM |
| HEL 9–26 (peptide) | 300 nM |
| HEL 9–27 (peptide) | 350 nM |
| HEL 10–22 (peptide) | 295 nM |
| HEL 10–22 A11Y (peptide) | 350 nM |
| HEL 10–22 D18Q (peptide) | 200 nM |
| HEL 10–22 G16D (peptide) | 2000 nM |
| HEL 10–22 G22Y (peptide) | 300 nM |
| HEL 10–22 K13A (peptide) | 300 nM |
| HEL 10–22 K13Y (peptide) | 250 nM |
| HEL 10–22 L17I (peptide) | < 1000 nM |
| HEL 10–22 L17N (peptide) | 1000 to 10000 nM |
| HEL 10–22 L17T (peptide) | 1000 to 10000 nM |
| HEL 10–22 N19F (peptide) | 1000 to 10000 nM |
| HEL 10–22 N19G (peptide) | < 1000 nM |
| HEL 10–22 N19Q (peptide) | 2000 nM |
| HEL 10–22 N19S (peptide) | < 1000 nM |
| HEL 10–22 R21K (peptide) | 350 nM |
| HEL 10–22 R21P (peptide) | 350 nM |
| HEL 10–22 Y20H (peptide) | 1000 to 10000 nM |
| HEL 10–22 Y20M (peptide) | 1000 to 10000 nM |
| HEL 10–22 Y20R (peptide) | < 1000 nM |
| HEL 10–22 Y20W (peptide) | 1000 to 10000 nM |
| HEL 13–27 (peptide) | 300 nM |
| HEL 18–27 (peptide) | > 50000 nM |
| human proinsulin 9–23 (peptide) | 1000 nM |
| human proinsulin 25–39 (peptide) | 1000 nM |

Test system: purified I-A^g7
Experiment: biochemical
Assay type: binding, NOD mouse
Conditions: not given

| Substance | binding to I-A^g7 (in words) |
| --- | --- |
| KPKATAEQLKTVMDD [In serum albumin (560–574), reference compound] | did not bind |

Biological target: T1, purified I-A^g7 (Mus musculus, UniProt P04228+Q31135)
T1 sequence (P04228 24-256): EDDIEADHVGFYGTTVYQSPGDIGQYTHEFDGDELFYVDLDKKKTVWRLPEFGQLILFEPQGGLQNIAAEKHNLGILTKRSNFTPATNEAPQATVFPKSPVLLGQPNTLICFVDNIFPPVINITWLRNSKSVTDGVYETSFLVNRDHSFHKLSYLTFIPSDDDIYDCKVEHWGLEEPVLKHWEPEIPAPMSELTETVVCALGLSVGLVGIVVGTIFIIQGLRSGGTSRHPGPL
T1 sequence (Q31135 1-263): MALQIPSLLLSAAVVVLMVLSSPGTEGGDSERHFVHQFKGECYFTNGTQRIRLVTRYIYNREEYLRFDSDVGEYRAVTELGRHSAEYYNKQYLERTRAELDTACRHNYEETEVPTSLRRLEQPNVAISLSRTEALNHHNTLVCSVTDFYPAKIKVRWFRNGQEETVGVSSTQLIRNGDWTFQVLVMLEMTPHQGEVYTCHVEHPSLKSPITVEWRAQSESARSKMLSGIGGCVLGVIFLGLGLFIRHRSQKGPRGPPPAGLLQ
Experiment: biochemical
Assay type: binding, NOD mouse
Conditions: not given

| Substance | IC50 |
| --- | --- |
| AAAMKRHGLDNYR-NH2 [HEL 9–21] | 300 nM |
| AAAMKRHGLDNYRG-NH2 [HEL 9–22] | 300 nM |
| AAAMKRHGLDNYRGYS-NH2 [HEL 9–24] | 200 nM |
| AAAMKRHGLDNYRGYSL-NH2 [HEL 9–25] | 300 nM |
| AAAMKRHGLDNYRGYSLG-NH2 [HEL 9–26] | 300 nM |
| AAAMKRHGLDNYRGYSLGN-NH2 [HEL 9–27] | 350 nM |
| AAMKRHGLDNYRGYSLGN-NH2 [HEL 10–27] | 300 nM |
| AMKRHGLDNYRGYSLGN-NH2 [HEL 11–27] | 300 nM |
| HGLDNYRGYSLGN-NH2 [HEL 15–27] | 20000 nM |
| KRHGLDNYRG-NH2 [HEL 13–22] | 250 nM |
| KRHGLDNYRGY-NH2 [HEL 13–23] | 200 nM |
| KRHGLDNYRGYSLGN-NH2 [HEL 13–27] | 300 nM |
| MKRHGLDNYRGY-NH2 [HEL 12–23] | 250 nM |
| MKRHGLDNYRGYSLGN-NH2 [HEL 12–27] | 300 nM |
| RHGLDNYRGYSLGN-NH2 [HEL 14–27] | 2000 nM |
